The values that follow come from publication PMC9959560.

Data set [1] in a line: anti-Sda KM694 WB of HeLa glycoproteins, normalised. To be noted: glycan lost; control: wild-type SF.
Data set [2] in a line: anisomycin chase 2-10 h, anti-FLAG WB, HeLa. To be noted: glycan lost; control: wild-type SF.
A short description of data set [3]: WB of culture media, HeLa (data not shown). The conditions noted are these: glycan lost; control: wild-type SF.
A short description of data set [4]: anti-FLAG WB normalised to β-actin, HeLa. The conditions noted are these: glycan lost; control: wild-type SF.
A short description of data set [5]: non-reducing SDS-PAGE and WB, dimer fraction, HeLa. The conditions noted are these: glycan lost; control: wild-type SF.
Data set [6] in a line: UDP-[3H]GalNAc transfer to fetuin, COS-7 lysates, normalised. To be noted: glycan lost; control: wild-type SF.
A short description of data set [7]: confocal colocalisation with TMEM165 and Calnexin, HeLa. To be noted: glycan lost; control: wild-type SF-eGFP.

B1: SF-B4GALNT2: N77Q (protein)
parent chain: MTSGGSRFLWLLKILVIILVLGIVGFMFGSMFLQAVFSSPKPELPSPAPGVQKLKLLPEERLRNLFSYDGIWLFPKNQCKCEANKEQGGYNFQDAYGQSDLPAVKARRQAEFEHFQRREGLPRPLPLLVQPNLPFGYPVHGVEVMPLHTVPIPGLQFEGPDAPVYEVTLTASLGTLNTLADVPDSVVQGRGQKQLIISTSDRKLLKFILQHVTYTSTGYQHQKVDIVSLESRSSVAKFPVTIRHPVIPKLYDPGPERKLRNLVTIATKTFLRPHKLMIMLRSIREYYPDLTVIVADDSQKPLEIKDNHVEYYTMPFGKGWFAGRNLAISQVTTKYVLWVDDDFLFNEETKIEVLVDVLEKTELDVVGGSVLGNVFQFKLLLEQSENGACLHKRMGFFQPLDGFPSCVVTSGVVNFFLAHTERLQRVGFDPRLQRVAHSEFFIDGLGTLLVGSCPEVIIGHQSRSPVVDSELAALEKTYNTYRSNTLTRVQFKLALHYFKNHLQCAA
For the protein B1, the enzymatic_activity entry was “no change” in data set [1] and “decreases” in data set [6]. The degradation_or_half_life entry in data set [2] is “increases”. For the same protein, the figures for the expression_or_secretion result in data set [3] and in data set [4] were “no change” and “decreases”, respectively. Besides, the oligomerisation result in data set [5] was “decreases”. Besides, the localisation_or_trafficking entry in data set [7] was “changes”.
